Laboratory results taken from patent US11130803B2, “Isoform-selective TGFβ1 inhibitors and use thereof” (Scholar Rock, Inc., priority 2018, dated 2021).
Substitutions are numbered along the chain they refer to. One block for each molecule: values may come before it.

Columns and labels:
Test in all cases: MSD-SET solution equilibrium titration binding
Conditions in all cases: MSD-SET at equilibrium, hIgG4, human complex; in M
hGARP-proTGFβ1 = target: T1, hGARP-proTGFβ1 (Homo sapiens, UniProt P01137)
T1 construct: made in house
From the text: (§1) Solution Equilibrium Titration (SET): The SET is an assay whereby binding between two molecules (such as an antigen and an antibody that binds the antigen) can be measured at equilibrium in a solution. For example, Meso-Scale Discovery (“MSD”)-based SET, or MSD-SET, is a useful mode of determining dissociation constants for particularly high-affinity protein-protein interactions at equilibrium, such as picomolar-affinity antibodies binding to their antigens (see, for example: Ducata et al. (2015) J Biomolecular Screening 20(10): 1256-1267). The SET-based assays are particularly useful for determining KD values of antibodies with sub-nanomolar (e.g., picomolar) affinities.
(§2) In view of this, it is contemplated that assays that measure binding affinities of such antibodies at equilibrium may more accurately represent the mode of target engagement in vivo. Thus, MSD-SET-based binding assays (or other suitable assays) may be performed, as exemplified in Table 9 below.
(§3) Solution equilibrium titration (“SET”) is an assay whereby binding between two molecules (such as an antigen and an antibody that binds the antigen) can be measured at equilibrium in a solution. For example, Meso-Scale Discovery (“MSD”)-based SET, or MSD-SET, is a useful mode of determining dissociation constants for particularly high-affinity protein-protein interactions at equilibrium (see, for example: Ducata et al. (2015) J Biomolecular Screening 20(10): 1256-1267). The SET-based assays are particularly useful for determining KD values of antibodies with sub-nanomolar (e.g., picomolar) affinities.
(§4) For solution equilibrium titration-based binding assays, protein complexes that comprise one of the presenting molecules such as those shown above may be employed as antigen (presenting molecule-TGFβ1 complex, or an LLC). Test antibodies are allowed to form antigen-antibody complex in solution. Antigen-antibody reaction mixtures are incubated to allow an equilibrium to be reached; the amount of the antigen-antibody complex present in the assay reactions can be measured by suitable means well known in the art. As compared to BLI-based assays, SET-based assays are less affected by on/off rates of the antigen-antibody complex, allowing sensitive detection of very high affinity interactions.

hLRRC33-proTGFβ1 = target: T2, hLRRC33-proTGFβ1 (Homo sapiens, UniProt P01137)
T2 construct: made in house
From the text: as §1, §2, §3, §4

hLTBP1-proTGFβ1 = target: T3, hLTBP1-proTGFβ1 (Homo sapiens, UniProt P01137)
T3 construct: made in house; host or cells: Expi293F cells, transient co-transfection
From the text: as §1, §2, §3, §4

hLTBP3-proTGFβ1 = target: T4, hLTBP3-proTGFβ1 (Homo sapiens, UniProt P01137)
T4 construct: made in house; host or cells: Expi293F cells, transient co-transfection
From the text: as §1, §2, §3, §4

T1 sequence (P01137 30-390): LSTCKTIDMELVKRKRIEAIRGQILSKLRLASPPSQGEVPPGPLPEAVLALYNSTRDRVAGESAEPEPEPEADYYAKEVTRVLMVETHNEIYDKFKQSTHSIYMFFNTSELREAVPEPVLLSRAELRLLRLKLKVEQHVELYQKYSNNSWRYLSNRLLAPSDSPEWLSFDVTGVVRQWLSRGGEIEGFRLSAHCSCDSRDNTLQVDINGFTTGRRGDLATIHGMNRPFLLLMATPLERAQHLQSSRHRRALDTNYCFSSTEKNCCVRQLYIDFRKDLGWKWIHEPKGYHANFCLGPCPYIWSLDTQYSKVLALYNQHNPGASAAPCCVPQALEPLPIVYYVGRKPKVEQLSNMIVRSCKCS
T1 sequence (Q14392 20-627 partner limits assumed): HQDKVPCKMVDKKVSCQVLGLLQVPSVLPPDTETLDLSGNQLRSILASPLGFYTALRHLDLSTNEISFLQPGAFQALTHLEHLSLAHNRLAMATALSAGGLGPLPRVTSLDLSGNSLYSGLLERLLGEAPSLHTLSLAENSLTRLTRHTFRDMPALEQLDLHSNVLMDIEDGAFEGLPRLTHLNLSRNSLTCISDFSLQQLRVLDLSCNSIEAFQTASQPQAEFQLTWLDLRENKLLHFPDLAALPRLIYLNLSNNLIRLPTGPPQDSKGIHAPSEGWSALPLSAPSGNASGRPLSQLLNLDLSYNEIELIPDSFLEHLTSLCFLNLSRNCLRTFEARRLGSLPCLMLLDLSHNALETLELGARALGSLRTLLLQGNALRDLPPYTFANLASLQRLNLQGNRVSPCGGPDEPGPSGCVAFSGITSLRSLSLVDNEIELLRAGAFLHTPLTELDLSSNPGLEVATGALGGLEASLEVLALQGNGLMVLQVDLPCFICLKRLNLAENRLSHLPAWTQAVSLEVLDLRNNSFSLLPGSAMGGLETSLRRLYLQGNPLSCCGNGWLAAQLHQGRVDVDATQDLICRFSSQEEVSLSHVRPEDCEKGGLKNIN
T3 sequence (P01137 30-390): as the sequence (P01137 30-390) above
T3 sequence (Q14766 873-1507 partner): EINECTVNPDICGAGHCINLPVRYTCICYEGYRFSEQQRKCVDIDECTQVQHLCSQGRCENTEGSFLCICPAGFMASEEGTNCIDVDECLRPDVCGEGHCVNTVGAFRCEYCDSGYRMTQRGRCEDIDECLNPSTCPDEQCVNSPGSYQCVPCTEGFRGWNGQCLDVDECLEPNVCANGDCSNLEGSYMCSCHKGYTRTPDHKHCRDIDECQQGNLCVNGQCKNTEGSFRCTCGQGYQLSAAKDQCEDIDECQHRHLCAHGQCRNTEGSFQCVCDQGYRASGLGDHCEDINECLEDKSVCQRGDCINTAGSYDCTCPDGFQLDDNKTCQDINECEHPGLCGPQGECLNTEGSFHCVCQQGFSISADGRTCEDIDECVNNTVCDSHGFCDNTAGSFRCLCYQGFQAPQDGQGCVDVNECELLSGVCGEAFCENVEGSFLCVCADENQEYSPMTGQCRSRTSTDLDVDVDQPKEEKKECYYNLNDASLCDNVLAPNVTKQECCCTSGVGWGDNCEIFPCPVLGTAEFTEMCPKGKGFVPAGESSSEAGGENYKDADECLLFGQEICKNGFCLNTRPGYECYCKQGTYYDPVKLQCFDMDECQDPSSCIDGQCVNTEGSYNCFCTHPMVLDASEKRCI
T4 sequence (P01137 30-390): as the sequence (P01137 30-390) above
T4 sequence (Q9NS15 866-1039 partner limits assumed): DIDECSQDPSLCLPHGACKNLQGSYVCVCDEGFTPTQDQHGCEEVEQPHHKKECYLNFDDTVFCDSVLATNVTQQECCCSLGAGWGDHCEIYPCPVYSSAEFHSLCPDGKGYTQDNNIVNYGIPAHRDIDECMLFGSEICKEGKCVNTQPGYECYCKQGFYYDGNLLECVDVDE
T2 sequence (P01137 30-390): as the sequence (P01137 30-390) above
T2 sequence (Q86YC3 19-650 partner limits assumed): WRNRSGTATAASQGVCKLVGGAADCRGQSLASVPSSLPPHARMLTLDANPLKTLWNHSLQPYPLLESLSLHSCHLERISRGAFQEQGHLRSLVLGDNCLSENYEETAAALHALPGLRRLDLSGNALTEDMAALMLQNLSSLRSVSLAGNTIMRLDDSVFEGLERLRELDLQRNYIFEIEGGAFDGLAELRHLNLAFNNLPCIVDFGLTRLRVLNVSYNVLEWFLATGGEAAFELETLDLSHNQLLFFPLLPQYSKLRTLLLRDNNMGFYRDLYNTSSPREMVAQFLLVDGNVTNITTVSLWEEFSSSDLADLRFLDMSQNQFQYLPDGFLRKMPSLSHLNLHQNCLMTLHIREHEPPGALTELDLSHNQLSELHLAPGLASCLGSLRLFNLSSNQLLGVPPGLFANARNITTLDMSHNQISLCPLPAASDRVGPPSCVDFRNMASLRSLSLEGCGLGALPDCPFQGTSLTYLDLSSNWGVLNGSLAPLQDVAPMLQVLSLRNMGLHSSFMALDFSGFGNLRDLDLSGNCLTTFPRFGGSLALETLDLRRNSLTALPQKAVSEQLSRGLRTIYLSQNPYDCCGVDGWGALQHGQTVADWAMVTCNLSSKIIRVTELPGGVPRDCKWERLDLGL

B3: Ab12: monoclonal antibody; VH SEQ ID NO: 237, VL SEQ ID NO: 241 (antibody, V domains shown)
VH: QVQLVESGGGVVQPGRSLRLSCAASGFTFSDYAMVWVRQAPGKGLEWVSAISGSGFTTYYADSVKGRFTISRDNSKNTLYLQMNSLRAEDTAVYYCARVSSGHWDFDYWGQGTLVTVSS
VL: DIQLTQSPSSLSASVGDRVTITCRASQSISSYLNWYQQKPGKAPKLLIYAASNLQSGVPSRFSGSGSGTDFTLTISSLQPEDFATYYCQQTYTVPLTFGGGTKVEIK
- (E) hGARP, Cell-associated proTGFβ1 KD (hGARP-proTGFβ1): 1.70E−09
- (F) hLRRC33, Cell-associated proTGFβ1 KD (hLRRC33-proTGFβ1): 3.20E−09
- (B) hLTBP1, Matrix-associated proTGFβ1 KD (hLTBP1-proTGFβ1): 7.80E−10
- (C) hLTBP3, Matrix-associated proTGFβ1 KD (hLTBP3-proTGFβ1): 6.60E−10

B5: Ab22: monoclonal antibody; VH SEQ ID NO: 130, VL SEQ ID NO: 15 (antibody, V domains shown)
VH: EVQLVESGGGLVQPGGSLRLSCAASGFTFGSFSMNWVRQAPGKGLEWVSYIHSDASTIYYADSVKGRFTISRDNAKNSLYLQMNSLRAEDTAVYYCARGVLDYGDMLDPWGQGTLVTVSS
VL: DIQMTQSPSSLSASVGDRVTITCQASQDITNYLNWYQQKPGKAPKLLIYDASNLETGVPSRFSGSGSGTDFTFTISSLQPEDIATYYCQQADNHPPWTFGGGTKVEIK
- (E) hGARP, Cell-associated proTGFβ1 KD (hGARP-proTGFβ1): 2.70E−11
- (F) hLRRC33, Cell-associated proTGFβ1 KD (hLRRC33-proTGFβ1): 2.00E−10
- (B) hLTBP1, Matrix-associated proTGFβ1 KD (hLTBP1-proTGFβ1): 5.00E−11
- (C) hLTBP3, Matrix-associated proTGFβ1 KD (hLTBP3-proTGFβ1): 3.30E−11

B7: Ab26: monoclonal antibody; VH SEQ ID NO: 134, VL SEQ ID NO: 15 (antibody, V domains shown)
VH: B5 VH with G30S, N35D, H52S, S53P, S78T
VL: B5 VL
- (E) hGARP, Cell-associated proTGFβ1 KD (hGARP-proTGFβ1): 1.40E−11
- (F) hLRRC33, Cell-associated proTGFβ1 KD (hLRRC33-proTGFβ1): 1.30E−10
- (B) hLTBP1, Matrix-associated proTGFβ1 KD (hLTBP1-proTGFβ1): 2.80E−11
- (C) hLTBP3, Matrix-associated proTGFβ1 KD (hLTBP3-proTGFβ1): 2.30E−11

B11: Ab33: monoclonal antibody; VH SEQ ID NO: 141, VL SEQ ID NO: 15 (antibody, V domains shown)
VH: B5 VH with G30S, H52S, S53P, D54S, S56D, S78T, R98H
VL: B5 VL
- (E) hGARP, Cell-associated proTGFβ1 KD (hGARP-proTGFβ1): 7.80E−12
- (F) hLRRC33, Cell-associated proTGFβ1 KD (hLRRC33-proTGFβ1): 4.60E−11
- (B) hLTBP1, Matrix-associated proTGFβ1 KD (hLTBP1-proTGFβ1): 1.10E−11
- (C) hLTBP3, Matrix-associated proTGFβ1 KD (hLTBP3-proTGFβ1): 7.00E−12

B12: Ab30: monoclonal antibody; VH SEQ ID NO: 138, VL SEQ ID NO: 15 (antibody, V domains shown)
VH: B5 VH with G30S, N35D, H52S, S53P, V100T
VL: B5 VL
- (E) hGARP, Cell-associated proTGFβ1 KD (hGARP-proTGFβ1): 2.20E−11
- (F) hLRRC33, Cell-associated proTGFβ1 KD (hLRRC33-proTGFβ1): 1.40E−10
- (B) hLTBP1, Matrix-associated proTGFβ1 KD (hLTBP1-proTGFβ1): 3.10E−11
- (C) hLTBP3, Matrix-associated proTGFβ1 KD (hLTBP3-proTGFβ1): 2.60E−11

Second part, the molecule after the results:

- (E) hGARP, Cell-associated proTGFβ1 KD (hGARP-proTGFβ1): 3.00E−09
- (F) hLRRC33, Cell-associated proTGFβ1 KD (hLRRC33-proTGFβ1): 6.30E−09
- (B) hLTBP1, Matrix-associated proTGFβ1 KD (hLTBP1-proTGFβ1): 1.20E−09
- (C) hLTBP3, Matrix-associated proTGFβ1 KD (hLTBP3-proTGFβ1): 1.20E−09
B1: Ab11: monoclonal antibody; VH SEQ ID NO: 239, VL SEQ ID NO: 241 (antibody, V domains shown)
VH: B3 VH with Q1E, V5L, V11L, R16G, S30R, D31N, V35S, A50S, F56G, T57A
VL: B3 VL

- (E) hGARP, Cell-associated proTGFβ1 KD (hGARP-proTGFβ1): 1.10E−09
- (F) hLRRC33, Cell-associated proTGFβ1 KD (hLRRC33-proTGFβ1): 1.60E−09
- (B) hLTBP1, Matrix-associated proTGFβ1 KD (hLTBP1-proTGFβ1): 2.20E−10
- (C) hLTBP3, Matrix-associated proTGFβ1 KD (hLTBP3-proTGFβ1): 1.80E−10
B2: Ab20: monoclonal antibody; VH SEQ ID NO: 251, VL SEQ ID NO: 241 (antibody, V domains shown)
VH: B3 VH with Q1E, V5L, V11L, R16G, D31A, V35T, F56G, T57V, F106Y
VL: B3 VL

- (E) hGARP, Cell-associated proTGFβ1 KD (hGARP-proTGFβ1): 3.80E−09
- (F) hLRRC33, Cell-associated proTGFβ1 KD (hLRRC33-proTGFβ1): 5.70E−09
- (B) hLTBP1, Matrix-associated proTGFβ1 KD (hLTBP1-proTGFβ1): 2.10E−09
- (C) hLTBP3, Matrix-associated proTGFβ1 KD (hLTBP3-proTGFβ1): 2.70E−09
B4: Ab19: monoclonal antibody; VH SEQ ID NO: 250, VL SEQ ID NO: 241 (antibody, V domains shown)
VH: B3 VH with D31S, Y32F, V35T, F56A, T57A, Y60F, Y108E
VL: B3 VL

- (E) hGARP, Cell-associated proTGFβ1 KD (hGARP-proTGFβ1): 1.90E−11
- (F) hLRRC33, Cell-associated proTGFβ1 KD (hLRRC33-proTGFβ1): 1.80E−10
- (B) hLTBP1, Matrix-associated proTGFβ1 KD (hLTBP1-proTGFβ1): 2.40E−11
- (C) hLTBP3, Matrix-associated proTGFβ1 KD (hLTBP3-proTGFβ1): 2.10E−11
B6: Ab24: monoclonal antibody; VH SEQ ID NO: 132, VL SEQ ID NO: 15 (antibody, V domains shown)
VH: B5 VH with G16R, G30S, S33A, N35Y, H52S, S53P
VL: B5 VL

- (E) hGARP, Cell-associated proTGFβ1 KD (hGARP-proTGFβ1): 1.50E−11
- (F) hLRRC33, Cell-associated proTGFβ1 KD (hLRRC33-proTGFβ1): 8.70E−11
- (B) hLTBP1, Matrix-associated proTGFβ1 KD (hLTBP1-proTGFβ1): 3.70E−11
- (C) hLTBP3, Matrix-associated proTGFβ1 KD (hLTBP3-proTGFβ1): 2.60E−11
B8: Ab32: monoclonal antibody; VH SEQ ID NO: 140, VL SEQ ID NO: 15 (antibody, V domains shown)
VH: B5 VH with G30S, H52S, S53P, D54S, S56D, S78T, L101W, Y103M
VL: B5 VL

- (E) hGARP, Cell-associated proTGFβ1 KD (hGARP-proTGFβ1): 5.50E−12
- (F) hLRRC33, Cell-associated proTGFβ1 KD (hLRRC33-proTGFβ1): 4.30E−11
- (B) hLTBP1, Matrix-associated proTGFβ1 KD (hLTBP1-proTGFβ1): 1.20E−11
- (C) hLTBP3, Matrix-associated proTGFβ1 KD (hLTBP3-proTGFβ1): 1.10E−11
B9: Ab29: monoclonal antibody; VH SEQ ID NO: 137, VL SEQ ID NO: 15 (antibody, V domains shown)
VH: B5 VH with G16R, G30S, S33A, H52S, S53P, D62G, A97V, G99A
VL: B5 VL

- (E) hGARP, Cell-associated proTGFβ1 KD (hGARP-proTGFβ1): 1.90E−11
- (F) hLRRC33, Cell-associated proTGFβ1 KD (hLRRC33-proTGFβ1): 9.60E−11
- (B) hLTBP1, Matrix-associated proTGFβ1 KD (hLTBP1-proTGFβ1): 1.90E−11
- (C) hLTBP3, Matrix-associated proTGFβ1 KD (hLTBP3-proTGFβ1): 1.40E−11
B10: Ab31: monoclonal antibody; VH SEQ ID NO: 139, VL SEQ ID NO: 15 (antibody, V domains shown)
VH: B5 VH with G30S, N35D, H52S, S53P, S78T, G99A
VL: B5 VL
